{
  "source": "paper PMC7079142",
  "binders": {"B1": {"name": "DUX4_TCT_R7TTT (structured_DNA)", "DNA": "GCTAATCTAATCAACCGCAGGTTGATTAGTTTATTAGC"}, "B2": {"name": "DUX4_TCT_R7C (structured_DNA)", "DNA": "GCTAATCTAATCAACCGCAGGTTGATTAGCATTAGC"}, "B3": {"name": "DUX4_TCT_R7CCCCC (structured_DNA)", "DNA": "GCTAATCTAATCAACCGCAGGTTGATTAGCCCCCATTAGC"}, "B4": {"name": "DUX4_TCT_R7CC (structured_DNA)", "DNA": "GCTAATCTAATCAACCGCAGGTTGATTAGCCATTAGC"}, "B5": {"name": "DUX4_TCT_F8CCC (structured_DNA)", "DNA": "GCTAATCTAACCCTCAACCGCAGGTTGATTAGATTAGC"}, "B6": {"name": "DUX4_TCT (structured_DNA)", "DNA": "GCTAATCTAATCAACCGCAGGTTGATTAGATTAGC"}, "B7": {"name": "PROP1 aptamer (structured_DNA)", "DNA": "B6 DNA with C7T, C12T, G24A, G29A"}, "B8": {"name": "DUX4_CCT (structured_DNA)", "DNA": "B6 DNA with T6C, A30G"}, "B9": {"name": "DUX4_TCT_R7CCCC (structured_DNA)", "DNA": "GCTAATCTAATCAACCGCAGGTTGATTAGCCCCATTAGC"}, "B10": {"name": "SELEX#1 (structured_DNA)", "DNA": "GCATAAACTTAATCAAGACCAGGTCATTGATTAACGCTCGTTTGG"}, "B11": {"name": "DUX4_TCT_F8CCCC (structured_DNA)", "DNA": "GCTAATCTAACCCCTCAACCGCAGGTTGATTAGATTAGC"}, "B12": {"name": "SELEX#5 (structured_DNA)", "DNA": "CTAGATTAACCCGTTTACCAAGCGATGGAAACTTAATCTCCATGG"}, "B13": {"name": "DUX4_CTT_F8C_R7CCC (structured_DNA)", "DNA": "GCTAACTTAACTCAACCGCAGGTTGATTAACCCGTTAGC"}, "B14": {"name": "SELEX#2 (structured_DNA)", "DNA": "TGGTGAAGCGCAAGGAAACTTAATCACAAGGTGATTAATTGTTTG"}, "B15": {"name": "Kd aptamer as printed in text and Fig 7 (structured_DNA)", "DNA": "GCTAACTTAATCAACCGCAGGTTGATTAGCCCATTAGC"}, "B16": {"name": "DUX4_TCT_R7CCC (structured_DNA)", "DNA": "B15 DNA with C6T, T7C"}, "B17": {"name": "DUX4_CTT_R7CCC (DUX4_CTT_loop) (structured_DNA)", "DNA": "B15 DNA with G29A, A33G"}, "B18": {"name": "DUX4_CTT_R7CCC as in T1 for S3B-C (structured_DNA)", "DNA": "AGCTAACCTAATCAACCGCAGGTTGATTAGCCCGTTAGC"}, "B19": {"name": "DUX4_TCT_F8C (structured_DNA)", "DNA": "GCTAATCTAACTCAACCGCAGGTTGATTAGATTAGC"}, "B20": {"name": "DUX4_TCT_F8G (structured_DNA)", "DNA": "B19 DNA with C11G"}, "B21": {"name": "DUX4_TCT_F8T (structured_DNA)", "DNA": "B19 DNA with C11T"}, "B22": {"name": "DUX4_TCT_F8CC (structured_DNA)", "DNA": "GCTAATCTAACCTCAACCGCAGGTTGATTAGATTAGC"}, "B23": {"name": "DUX4_TCT_F8CT (structured_DNA)", "DNA": "B22 DNA with C12T"}},
  "key": {"[1]": {"target": "T1, StrepII-SUMO-DUX4-His6 (Homo sapiens, UniProt Q9UBX2 1-424)", "T1 sequence (Q9UBX2 whole entry)": "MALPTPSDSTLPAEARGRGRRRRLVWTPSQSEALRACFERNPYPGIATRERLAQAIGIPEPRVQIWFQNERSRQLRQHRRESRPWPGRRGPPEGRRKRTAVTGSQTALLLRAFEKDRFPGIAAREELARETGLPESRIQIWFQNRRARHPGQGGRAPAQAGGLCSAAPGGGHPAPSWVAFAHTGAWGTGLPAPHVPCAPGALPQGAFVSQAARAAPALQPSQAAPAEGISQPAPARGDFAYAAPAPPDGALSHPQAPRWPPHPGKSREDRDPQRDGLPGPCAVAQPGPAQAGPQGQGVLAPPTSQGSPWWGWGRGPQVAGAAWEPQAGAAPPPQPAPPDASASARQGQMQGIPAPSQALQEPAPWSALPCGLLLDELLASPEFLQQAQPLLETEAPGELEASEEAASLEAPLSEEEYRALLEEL", "test": "TR-FRET competition"}, "[2]": {"target": "T1, StrepII-SUMO-DUX4-His6", "test": "TR-FRET competition", "remark": "listed apart in the source"}, "[3]": {"target": "T1, StrepII-SUMO-DUX4-His6", "test": "TR-FRET competition", "remark": "listed apart in the source"}, "[4]": {"target": "T1, StrepII-SUMO-DUX4-His6", "test": "TR-FRET competition", "remark": "listed apart in the source"}, "[5]": {"target": "T1, StrepII-SUMO-DUX4-His6", "test": "TR-FRET competition", "remark": "listed apart in the source"}, "[6]": {"target": "T2, PROP1-cMyc-DDK (UniProt O75360 1-226)", "T2 sequence (O75360 whole entry)": "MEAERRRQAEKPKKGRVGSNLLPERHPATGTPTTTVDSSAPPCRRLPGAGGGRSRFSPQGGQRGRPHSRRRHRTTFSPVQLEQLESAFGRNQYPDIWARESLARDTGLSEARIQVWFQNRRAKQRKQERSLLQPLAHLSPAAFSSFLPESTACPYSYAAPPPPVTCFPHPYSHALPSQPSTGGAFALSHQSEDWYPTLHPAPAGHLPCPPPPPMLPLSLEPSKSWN", "test": "TR-FRET competition"}, "[7]": {"target": "T1, StrepII-SUMO-DUX4-His6", "test": "TR-FRET competition", "remark": "listed apart in the source"}, "[8]": {"target": "T1, StrepII-SUMO-DUX4-His6", "test": "TR-FRET competition", "remark": "listed apart in the source"}, "[9]": {"target": "T1, StrepII-SUMO-DUX4-His6", "test": "TR-FRET competition", "remark": "listed apart in the source"}, "[10]": {"target": "T2, PROP1-cMyc-DDK", "test": "TR-FRET competition", "remark": "listed apart in the source"}, "[11]": {"target": "T1, StrepII-SUMO-DUX4-His6", "test": "fluorescence polarization"}, "[12]": {"target": "T1, StrepII-SUMO-DUX4-His6", "test": "TR-FRET competition", "remark": "listed apart in the source"}, "[13]": {"target": "T2, PROP1-cMyc-DDK", "test": "TR-FRET competition", "remark": "listed apart in the source"}, "[14]": {"target": "T1, StrepII-SUMO-DUX4-His6", "test": "TR-FRET competition", "remark": "listed apart in the source"}, "[15]": {"target": "T1, StrepII-SUMO-DUX4-His6", "test": "EMSA"}, "[16]": {"target": "T1, StrepII-SUMO-DUX4-His6", "test": "TR-FRET competition", "remark": "listed apart in the source"}, "[17]": {"target": "T1, StrepII-SUMO-DUX4-His6", "test": "TR-FRET competition", "remark": "listed apart in the source"}, "[18]": {"target": "T1, StrepII-SUMO-DUX4-His6", "test": "TR-FRET competition", "remark": "listed apart in the source"}},
  "note": "Residue numbers refer to the chain shown, from its start. Numbers in names are those of the source. Like-named read-outs stand apart in the source and are kept apart here.",
  "data": [
    {"binder": "B1", "values": [
      {"measurement": "binding result", "setting": "[1]", "value": "binds"}
    ]},
    {"binder": "B2", "values": [
      {"measurement": "binding result", "setting": "[2]", "value": "binds"}
    ]},
    {"binder": "B3", "values": [
      {"measurement": "binding result", "setting": "[2]", "value": "binds"}
    ]},
    {"binder": "B4", "values": [
      {"measurement": "binding result", "setting": "[3]", "value": "binds"}
    ]},
    {"binder": "B5", "values": [
      {"measurement": "binding result", "setting": "[4]", "value": "binds"}
    ]},
    {"binder": "B6", "values": [
      {"measurement": "binding signal", "setting": "[5]", "value": "~3 fold higher IC50 than DUX4_CCT"}
    ]},
    {"binder": "B7", "values": [
      {"measurement": "binding result", "setting": "[6]", "value": "binds"}
    ]},
    {"binder": "B8", "values": [
      {"measurement": "binding result", "setting": "[7]", "value": "binds"}
    ]},
    {"binder": "B9", "values": [
      {"measurement": "binding result", "setting": "[2]", "value": "binds"}
    ]},
    {"binder": "B10", "values": [
      {"measurement": "binding result", "setting": "[8]", "value": "binds"}
    ]},
    {"binder": "B11", "values": [
      {"measurement": "binding result", "setting": "[4]", "value": "binds"}
    ]},
    {"binder": "B12", "values": [
      {"measurement": "binding result", "setting": "[8]", "value": "binds"}
    ]},
    {"binder": "B13", "values": [
      {"measurement": "binding signal", "setting": "[9]", "value": "~2 fold lower affinity than single-loop DUX4_CTT_R7CCC"},
      {"measurement": "binding result", "setting": "[10]", "value": "binds"}
    ]},
    {"binder": "B14", "values": [
      {"measurement": "binding result", "setting": "[8]", "value": "binds"}
    ]},
    {"binder": "B15", "values": [
      {"measurement": "Kd", "setting": "[11]", "value": "~20", "unit": "nM"}
    ]},
    {"binder": "B16", "values": [
      {"measurement": "binding signal", "setting": "[12]", "value": "~10 fold affinity vs loop-free template"}
    ]},
    {"binder": "B17", "values": [
      {"measurement": "binding signal", "setting": "[9]", "value": "~20", "unit": "fold affinity vs backbone"},
      {"measurement": "binding signal", "setting": "[13]", "value": "~5 fold IC50 gain vs DUX4_CTT"},
      {"measurement": "binding signal", "setting": "[14]", "value": "~21 fold IC50 gain vs DUX4_CTT"}
    ]},
    {"binder": "B18", "values": [
      {"measurement": "binding result", "setting": "[15]", "value": "binds"}
    ]},
    {"binder": "B19", "values": [
      {"measurement": "binding result", "setting": "[16]", "value": "binds"}
    ]},
    {"binder": "B20", "values": [
      {"measurement": "binding result", "setting": "[17]", "value": "binds"}
    ]},
    {"binder": "B21", "values": [
      {"measurement": "binding result", "setting": "[17]", "value": "binds"}
    ]},
    {"binder": "B22", "values": [
      {"measurement": "binding result", "setting": "[18]", "value": "binds"}
    ]},
    {"binder": "B23", "values": [
      {"measurement": "binding result", "setting": "[4]", "value": "binds"}
    ]}
  ]
}
